Consider two molecules from patent US20150362496A1 (ONCOMATRYX BIOPHARMA S L, published 2015).

B1: 1E8.33 monoclonal antibody (antibody, V domains shown)
VH: EVQLQESGPELVKTGSSVKISCKASGYSFTGYYMHWVKQSQGKSLEWIGYINCYNGATSYNRNFKGKATFTVDTSSSTAYMQFNSLTSGDSAVYYCAIWDYEFHVMDYWGQRTSLTVSS
VL: ENVLTQSPAIMSASLGEKVTMSCRASSSVNYMYWYQQKSDASPKLWIYYTSNLAPGVPARFSGSGSGNSYSLTISSMEGEDADTYYCQQFTSSPWTFGGGTKLEIK
notes: they are variable domains only; also called 1E8.33 mAb; 1E8.33 clone
B2: peptide YNYGTMESYQTEAPR (peptide)
peptide: YNYGTMESYQTEAPR
notes: 15-residue peptide of the proCOL11A1 VAR region; also called the mentioned peptide

Experiment [1] concerns the target T1, proCOL5A1 expressed in SAOS-2 osteosarcoma cells (UniProt P20908 38-1838, limits assumed).
T1 construct: Endogenous protein in cells, stained by immunocytochemistry
Put plainly: immunocytochemistry on SAOS-2 cells.

In experiment [2] the target is B1. Nature of the experiment: peptide blocking of 1E8.33 in Western blot of A204 cells. On the procedure:
FIG. 8: 1E8.33 mAb blocking test for locating the epitope, performed by means of Western blot of A204 cells. The detection was performed with a mixture of the antibody and different peptides. Lane 1: negative control without antibody. Lane 2: FQEYNYG. Lane 3: […]. Lane 4: […]. Lane 5: […]. Lane 6: […]. Lane 7: positive control with the unblocked 1E8.33 mAb. Complete blocking was observed only in lane 6.
On the technique in general: In western blotting, separated proteins are transferred to a membrane and probed.

T1 sequence (P20908 38-1838 limits assumed): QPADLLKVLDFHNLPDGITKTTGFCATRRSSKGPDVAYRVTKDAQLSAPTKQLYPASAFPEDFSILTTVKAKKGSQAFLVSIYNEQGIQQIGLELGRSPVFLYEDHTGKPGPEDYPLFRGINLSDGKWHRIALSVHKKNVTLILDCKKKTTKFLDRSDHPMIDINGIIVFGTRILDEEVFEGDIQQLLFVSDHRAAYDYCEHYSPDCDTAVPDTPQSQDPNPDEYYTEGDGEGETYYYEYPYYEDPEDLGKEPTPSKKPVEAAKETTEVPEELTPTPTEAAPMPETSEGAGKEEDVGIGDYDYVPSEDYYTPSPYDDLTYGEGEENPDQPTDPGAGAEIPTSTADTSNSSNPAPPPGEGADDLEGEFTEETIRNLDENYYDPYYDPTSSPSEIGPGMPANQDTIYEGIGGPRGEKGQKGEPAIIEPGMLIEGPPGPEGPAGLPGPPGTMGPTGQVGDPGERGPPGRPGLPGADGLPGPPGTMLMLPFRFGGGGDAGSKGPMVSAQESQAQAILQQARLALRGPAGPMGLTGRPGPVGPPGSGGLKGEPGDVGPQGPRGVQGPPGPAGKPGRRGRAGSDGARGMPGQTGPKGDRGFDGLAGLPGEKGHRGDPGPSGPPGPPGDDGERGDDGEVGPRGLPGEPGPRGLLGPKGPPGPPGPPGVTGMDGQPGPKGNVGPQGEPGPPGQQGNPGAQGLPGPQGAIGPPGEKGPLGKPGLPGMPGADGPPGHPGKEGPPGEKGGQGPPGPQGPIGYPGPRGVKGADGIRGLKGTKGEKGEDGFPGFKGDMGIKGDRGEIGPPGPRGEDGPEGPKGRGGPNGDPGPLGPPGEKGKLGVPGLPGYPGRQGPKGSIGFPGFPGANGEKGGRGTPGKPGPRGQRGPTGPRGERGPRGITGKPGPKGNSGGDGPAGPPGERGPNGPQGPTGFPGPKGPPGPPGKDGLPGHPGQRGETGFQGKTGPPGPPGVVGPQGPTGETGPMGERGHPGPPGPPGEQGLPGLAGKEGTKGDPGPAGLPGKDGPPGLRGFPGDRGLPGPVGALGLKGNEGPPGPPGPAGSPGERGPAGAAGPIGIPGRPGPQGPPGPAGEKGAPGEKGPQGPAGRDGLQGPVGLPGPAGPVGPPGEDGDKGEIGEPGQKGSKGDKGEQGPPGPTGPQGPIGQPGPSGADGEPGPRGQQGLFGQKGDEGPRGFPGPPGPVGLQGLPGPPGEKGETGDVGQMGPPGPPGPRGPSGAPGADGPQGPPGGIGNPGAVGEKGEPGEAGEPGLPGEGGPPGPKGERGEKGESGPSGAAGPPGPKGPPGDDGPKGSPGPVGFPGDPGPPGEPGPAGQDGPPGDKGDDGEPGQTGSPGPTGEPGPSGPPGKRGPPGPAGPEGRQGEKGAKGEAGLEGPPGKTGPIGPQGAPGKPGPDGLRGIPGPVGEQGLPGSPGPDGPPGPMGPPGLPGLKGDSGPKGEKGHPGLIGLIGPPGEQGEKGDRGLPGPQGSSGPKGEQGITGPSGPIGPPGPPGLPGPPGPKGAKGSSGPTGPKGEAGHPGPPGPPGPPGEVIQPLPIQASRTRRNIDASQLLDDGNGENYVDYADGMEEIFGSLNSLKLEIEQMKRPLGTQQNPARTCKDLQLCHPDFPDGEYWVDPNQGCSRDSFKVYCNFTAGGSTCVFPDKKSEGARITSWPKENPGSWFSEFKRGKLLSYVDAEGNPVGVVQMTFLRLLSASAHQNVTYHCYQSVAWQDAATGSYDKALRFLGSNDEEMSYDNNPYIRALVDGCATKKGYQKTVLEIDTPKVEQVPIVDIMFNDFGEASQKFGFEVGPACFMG

For B1, the binding result in experiment [1] is “no binding”.

As for B2, the binding result in experiment [2] is “binds”.
